pIC50, pKd: −log10 of the molar value.
biological target: plasma purified human AT-III (antithrombin III), in complex with low molecular weight heparin (human) (UniProt P01008); assay: K0.5: AT-III conc. for 50% inhibition of FIXa cleavage of Pefafluor FIXa; AT-III/LMWH, 1 uM LMWH, 1 min
Sequence (P01008 33-464, one chain of several): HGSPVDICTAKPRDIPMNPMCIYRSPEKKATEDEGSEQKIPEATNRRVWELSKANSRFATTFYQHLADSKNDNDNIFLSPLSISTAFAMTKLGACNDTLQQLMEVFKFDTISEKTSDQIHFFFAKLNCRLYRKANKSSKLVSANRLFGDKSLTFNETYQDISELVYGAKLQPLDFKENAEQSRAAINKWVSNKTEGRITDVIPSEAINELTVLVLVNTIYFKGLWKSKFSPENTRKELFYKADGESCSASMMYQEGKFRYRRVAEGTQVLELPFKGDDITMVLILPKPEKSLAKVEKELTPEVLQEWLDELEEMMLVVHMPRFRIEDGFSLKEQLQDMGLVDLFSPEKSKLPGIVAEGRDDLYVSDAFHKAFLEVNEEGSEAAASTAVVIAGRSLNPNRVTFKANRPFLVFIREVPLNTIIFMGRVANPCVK

pIC50	Substance
7.69	Plasma Purified FIXa (from UniProt P00740 47-191; P00740 227-461) (enzyme)

biological target: Factor VIIIa (recombinant FVIII, Kogenate FS, activated with alpha-thrombin) (UniProt P00451); assay: functional KD-app: FVIIIa titrated (0-400 nM) on 2 pM FIXa, PC/PS vesicles, 500 nM FX, fluorogenic FXa substrate
Sequence (P00451 20-391, chain 1 of 3): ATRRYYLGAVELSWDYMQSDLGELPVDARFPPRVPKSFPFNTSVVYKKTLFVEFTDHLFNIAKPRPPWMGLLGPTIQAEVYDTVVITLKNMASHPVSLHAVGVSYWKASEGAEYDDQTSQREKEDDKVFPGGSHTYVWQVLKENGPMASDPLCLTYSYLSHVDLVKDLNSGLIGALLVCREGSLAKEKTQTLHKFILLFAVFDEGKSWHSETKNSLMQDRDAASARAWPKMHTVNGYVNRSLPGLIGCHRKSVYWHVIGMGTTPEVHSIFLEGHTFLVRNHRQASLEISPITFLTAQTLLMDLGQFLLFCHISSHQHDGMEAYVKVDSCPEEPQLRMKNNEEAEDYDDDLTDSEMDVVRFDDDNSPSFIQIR
Sequence (P00451 392-759, chain 2 of 3): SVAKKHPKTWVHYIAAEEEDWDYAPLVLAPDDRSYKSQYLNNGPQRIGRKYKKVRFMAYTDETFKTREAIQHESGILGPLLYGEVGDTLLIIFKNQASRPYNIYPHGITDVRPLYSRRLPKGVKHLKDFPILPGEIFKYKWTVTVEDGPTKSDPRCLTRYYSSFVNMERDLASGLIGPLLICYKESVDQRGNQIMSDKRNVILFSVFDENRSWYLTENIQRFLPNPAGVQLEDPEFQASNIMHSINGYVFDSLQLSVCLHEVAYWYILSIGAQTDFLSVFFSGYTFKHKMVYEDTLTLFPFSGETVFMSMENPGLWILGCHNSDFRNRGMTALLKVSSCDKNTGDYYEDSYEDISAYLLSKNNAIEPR
Sequence (P00451 1709-2351, chain 3 of 3): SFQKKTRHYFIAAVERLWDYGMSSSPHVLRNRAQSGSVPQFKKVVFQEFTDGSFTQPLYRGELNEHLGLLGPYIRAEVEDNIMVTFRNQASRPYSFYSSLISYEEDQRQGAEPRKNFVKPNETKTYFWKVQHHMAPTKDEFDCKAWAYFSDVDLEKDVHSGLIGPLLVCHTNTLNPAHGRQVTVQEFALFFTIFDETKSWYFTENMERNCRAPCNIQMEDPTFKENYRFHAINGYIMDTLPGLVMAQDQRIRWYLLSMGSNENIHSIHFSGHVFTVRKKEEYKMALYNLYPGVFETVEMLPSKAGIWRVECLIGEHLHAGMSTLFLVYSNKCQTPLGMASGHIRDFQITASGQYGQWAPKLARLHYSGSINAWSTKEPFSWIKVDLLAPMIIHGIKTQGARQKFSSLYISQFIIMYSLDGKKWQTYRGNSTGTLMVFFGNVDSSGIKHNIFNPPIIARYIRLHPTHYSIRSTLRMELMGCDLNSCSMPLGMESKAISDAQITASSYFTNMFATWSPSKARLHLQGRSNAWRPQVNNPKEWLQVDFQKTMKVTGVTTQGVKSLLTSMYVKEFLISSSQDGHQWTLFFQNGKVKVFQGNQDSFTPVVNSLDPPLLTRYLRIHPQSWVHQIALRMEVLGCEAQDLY

Substance	pKd
FIXa-Y155F/K247N/N249S/R318Y/R338E/T343R/E410N (from UniProt P00740 47-191; P00740 227-461) (enzyme)	7.86
FIXa-R318Y/R338E/T343R/E410N (from UniProt P00740 47-191; P00740 227-461) (enzyme)	8.21
FIXa-R318Y/R338E/T343R (from UniProt P00740 47-191; P00740 227-461) (enzyme)	8.01
FIXa-Y155F/R318Y/T343R/E410N (from UniProt P00740 47-191; P00740 227-461) (enzyme)	7.42
FIXa-Y155F/R338E/T343R/R403E (from UniProt P00740 47-191; P00740 227-461) (enzyme)	7.14
FIXa-Y155F/K228N/K247N/N249S/R318Y/R338E/T343R/R403E/E410N (from UniProt P00740 47-191; P00740 227-461) (enzyme)	7.43
FIXa-K228N/R318Y/R338E/T343R/R403E/E410N (from UniProt P00740 47-191; P00740 227-461) (enzyme)	7.76
FIXa-Y155F/K247N/N249S/R318Y/R338E/T343R/R403E/E410N (from UniProt P00740 47-191; P00740 227-461) (enzyme)	7.82
FIXa-Y155F/K247N/N249S/R338E/E410N (from UniProt P00740 47-191; P00740 227-461) (enzyme)	7.60
FIXa-Y155F/R338E/T343R/R403E/E410N (from UniProt P00740 47-191; P00740 227-461) (enzyme)	7.55
FIXa-R318Y/T343R/R403E/E410N (from UniProt P00740 47-191; P00740 227-461) (enzyme)	7.08
FIXa-K228N/K247N/N249S/R318Y/R338E/T343R/R403E/E410N (from UniProt P00740 47-191; P00740 227-461) (enzyme)	7.54
FIXa-K247N/N249S/R318Y/R338E/T343R (from UniProt P00740 47-191; P00740 227-461) (enzyme)	7.83
FIXa-R338E/T343R/R403E/E410N (from UniProt P00740 47-191; P00740 227-461) (enzyme)	7.53
FIXa-R318Y/R338E/T343R/R403E/E410S (from UniProt P00740 47-191; P00740 227-461) (enzyme)	7.63
FIXa-Y155F/R318Y/R338E/T343R (from UniProt P00740 47-191; P00740 227-461) (enzyme)	8.08

Other lines, results leading:

pKd	Substance
8.13	FIXa-Y155F/R318Y/R338E/T343R/E410N (from UniProt P00740 47-191; P00740 227-461) (enzyme)
8.07	FIXa-Y155F/R338E/T343R/E410N (from UniProt P00740 47-191; P00740 227-461) (enzyme)
7.81	FIXa-Y155F/K247N/N249S/R338E/T343R (from UniProt P00740 47-191; P00740 227-461) (enzyme)
8.11	FIXa-K228N/K247N/N249S/R318Y/R338E/T343R/E410N (from UniProt P00740 47-191; P00740 227-461) (enzyme)
7.26	FIXa-R338E/T343R/R403E (from UniProt P00740 47-191; P00740 227-461) (enzyme)
8.12	FIXa-R338E/T343R/E410N (from UniProt P00740 47-191; P00740 227-461) (enzyme)

biological target: Factor VIIIa (recombinant FVIII, Kogenate FS, activated with alpha-thrombin) (UniProt P00451); assay: apparent KD (KD-app): FX activation rate (Spectrafluor FXa fluorescence) vs FVIIIa titration, PC/PS vesicles, Ca2+; indirect functional assay

Substance	pKd
FIXa variant D104N/K106S/Y155F/R318Y/R338E/R403E/E410N (from UniProt P00740 47-191; P00740 227-461) (enzyme)	7.21
FIXa variant R318Y/R338E/E410N (from UniProt P00740 47-191; P00740 227-461) (enzyme)	8.11
FIXa variant A262S (from UniProt P00740 47-191; P00740 227-461) (enzyme)	7.03
FIXa variant V202Y (from UniProt P00740 47-191; P00740 227-461) (enzyme)	7.21
Catalyst Biosciences WT FIXa (recombinant wild-type FIXa) (from UniProt P00740 47-191; P00740 227-461) (enzyme)	7.02
FIXa variant S319N/L321S (from UniProt P00740 47-191; P00740 227-461) (enzyme)	7.28
FIXa variant D104N/K106S/I251S (from UniProt P00740 47-191; P00740 227-461) (enzyme)	6.51
FIXa variant K316N (from UniProt P00740 47-191; P00740 227-461) (enzyme)	7.18
FIXa variant E410S (from UniProt P00740 47-191; P00740 227-461) (enzyme)	7.00
FIXa variant R318Y/R338E/R403E/E410N (from UniProt P00740 47-191; P00740 227-461) (enzyme)	7.33
BeneFIX Coagulation FIX (T148A), activated (FIXa) (from UniProt P00740 47-191; P00740 227-461) (enzyme)	7.04
FIXa variant E239N (from UniProt P00740 47-191; P00740 227-461) (enzyme)	7.11
FIXa variant K400E/R403E (from UniProt P00740 47-191; P00740 227-461) (enzyme)	6.53
FIXa variant R338E/E410N (from UniProt P00740 47-191; P00740 227-461) (enzyme)	8.39
FIXa variant R312A (from UniProt P00740 47-191; P00740 227-461) (enzyme)	7.28
FIXa variant R318E (from UniProt P00740 47-191; P00740 227-461) (enzyme)	7.17
FIXa variant A204M (from UniProt P00740 47-191; P00740 227-461) (enzyme)	7.22
FIXa variant R338E/R403E (from UniProt P00740 47-191; P00740 227-461) (enzyme)	6.74
FIXa variant R318Y/R338E/R403E (from UniProt P00740 47-191; P00740 227-461) (enzyme)	6.47
FIXa variant D104N/K106S/R318Y/R338E/E410N (from UniProt P00740 47-191; P00740 227-461) (enzyme)	7.91
FIXa variant T148A (from UniProt P00740 47-191; P00740 227-461) (enzyme)	7.10
FIXa variant R338E (from UniProt P00740 47-191; P00740 227-461) (enzyme)	7.37
FIXa variant R338E/R403E/E410N (from UniProt P00740 47-191; P00740 227-461) (enzyme)	7.26
FIXa variant R312Y (from UniProt P00740 47-191; P00740 227-461) (enzyme)	7.07
FIXa variant R403E (from UniProt P00740 47-191; P00740 227-461) (enzyme)	6.18

The remaining lines, values ahead:

pKd	Substance
7.06	FIXa variant K293A (from UniProt P00740 47-191; P00740 227-461) (enzyme)
6.90	FIXa variant N346D (from UniProt P00740 47-191; P00740 227-461) (enzyme)
7.16	FIXa variant R312L (from UniProt P00740 47-191; P00740 227-461) (enzyme)
7.09	FIXa variant H257E (from UniProt P00740 47-191; P00740 227-461) (enzyme)
7.12	FIXa variant T241N/H243S (from UniProt P00740 47-191; P00740 227-461) (enzyme)
7.13	FIXa variant E410N (from UniProt P00740 47-191; P00740 227-461) (enzyme)
7.00	FIXa variant K400A (from UniProt P00740 47-191; P00740 227-461) (enzyme)
7.11	FIXa variant D203Y (from UniProt P00740 47-191; P00740 227-461) (enzyme)
6.89	FIXa variant K400A/R403A (from UniProt P00740 47-191; P00740 227-461) (enzyme)
7.34	FIXa variant R312Q (from UniProt P00740 47-191; P00740 227-461) (enzyme)
6.72	FIXa variant R318Y (from UniProt P00740 47-191; P00740 227-461) (enzyme)
6.04	FIXa variant R403E/E410N (from UniProt P00740 47-191; P00740 227-461) (enzyme)

— patent US20210230570A1
